Consider two molecules from PMC1277823, “nfi-1 affects behavior and life-span in C. elegans but is not essential for DNA replication or survival”.

In this data set the target is hNFI-C220-H6 (human, UniProt P08651 1-220). The data set is described as follows: EMSA; ~5 ng protein; EMSA on 6.5% non-denaturing polyacrylamide gel (Fig. 2A); buffer, salt, pH and temperature not given (as in cited refs 38, 54). To be noted: protein: recombinant; tags: 6xHis; chain copies: 2.
Sequence of hNFI-C220-H6 (P08651 1-220): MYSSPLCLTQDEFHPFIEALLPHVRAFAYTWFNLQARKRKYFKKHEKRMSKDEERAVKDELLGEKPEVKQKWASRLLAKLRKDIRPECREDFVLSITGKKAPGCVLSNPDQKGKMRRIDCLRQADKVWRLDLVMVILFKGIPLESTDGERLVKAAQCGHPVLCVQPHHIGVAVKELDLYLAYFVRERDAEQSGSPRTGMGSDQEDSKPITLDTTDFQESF

B1: 2.6 (dsDNA)
DNA 1: AGGTCTGGCTTTGGGCCAAGAGCCGC
DNA 2: GCGGCTCTTGGCCCAAAGCCAGACCT
B1: the binding result is “binds”.

B2: C2 (dsDNA)
DNA 1: AGGTCTCGCTTTGGGCCAAGAGCCGC
DNA 2: GCGGCTCTTGGCCCAAAGCGAGACCT
For B2, the binding result is reported as “no binding”.
